Reference: article PMC7954794, “Protein context shapes the specificity of SH3 domain-mediated interactions in vivo” (Nature Communications, 2021)

System: Abp1 PPIs
Assay: DHFR-PCA of Abp1 SH3-swapped baits (Fig. 2B-D, S2C, S2F);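 as to Protein-protein interaction distance between Abp1 SH3-swapped baits, to ABP1: Euclidean distance between DHFR-PCA score profiles of the baits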;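 as to Protein-protein interaction distance between Abp1 SH3-swapped baits, to BEM1-2: Euclidean distance between DHFR-PCA score profiles of the baits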;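 as to Protein-protein interaction distance between Abp1 SH3-swapped baits, to BOI1: Euclidean distance between DHFR-PCA score profiles of the baits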;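 as to Protein-protein interaction distance between Abp1 SH3-swapped baits, to BZZ1-1: Euclidean distance between DHFR-PCA score profiles of the baits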
Format: cell-based, Saccharomyces cerevisiae
Settings: for Protein-protein interaction distance between Abp1 SH3-swapped baits, to ABP1: Abp1 bait with swapped SH3, distance to bait with ABP1 SH3; for Protein-protein interaction distance between Abp1 SH3-swapped baits, to ABP1 / Protein-protein interaction distance between Abp1 SH3-swapped baits, to BBC1 / Protein-protein interaction distance between Abp1 SH3-swapped baits, to BEM1-1 / Protein-protein interaction distance between Abp1 SH3-swapped baits, to BEM1-2 / Protein-protein interaction distance between Abp1 SH3-swapped baits, to BOI1 / Protein-protein interaction distance between Abp1 SH3-swapped baits, to BOI2 / Protein-protein interaction distance between Abp1 SH3-swapped baits, to BUD14 / Protein-protein interaction distance between Abp1 SH3-swapped baits, to BZZ1-1 / Protein-protein interaction distance between Abp1 SH3-swapped baits, to BZZ1-2 / Protein-protein interaction distance between Abp1 SH3-swapped baits, to CDC25 / Protein-protein interaction distance between Abp1 SH3-swapped baits, to CTTN / Protein-protein interaction distance between Abp1 SH3-swapped baits, to CYK3 / Protein-protein interaction distance between Abp1 SH3-swapped baits, to DBNL / Protein-protein interaction distance between Abp1 SH3-swapped baits, to FUS1 / Protein-protein interaction distance between Abp1 SH3-swapped baits, to HCLS1 / Protein-protein interaction distance between Abp1 SH3-swapped baits, to HOF1 / Protein-protein interaction distance between Abp1 SH3-swapped baits, to HSE1 / Protein-protein interaction distance between Abp1 SH3-swapped baits, to LSB1 / Protein-protein interaction distance between Abp1 SH3-swapped baits, to LSB3 / Protein-protein interaction distance between Abp1 SH3-swapped baits, to MYO3 / Protein-protein interaction distance between Abp1 SH3-swapped baits, to MYO5 / Protein-protein interaction distance between Abp1 SH3-swapped baits, to NBP2 / Protein-protein interaction distance between Abp1 SH3-swapped baits, to PEX13 / Protein-protein interaction distance between Abp1 SH3-swapped baits, to PIN3 / Protein-protein interaction distance between Abp1 SH3-swapped baits, to RVS167 / Protein-protein interaction distance between Abp1 SH3-swapped baits, to SDC25 / Protein-protein interaction distance between Abp1 SH3-swapped baits, to SHO1 / Protein-protein interaction distance between Abp1 SH3-swapped baits, to SLA1-1 / Protein-protein interaction distance between Abp1 SH3-swapped baits, to SLA1-2 / Protein-protein interaction distance between Abp1 SH3-swapped baits, to SLA1-3 / Protein-protein interaction distance between Abp1 SH3-swapped baits, to YSC84: sheet Fig2C; for Protein-protein interaction distance between Abp1 SH3-swapped baits, to BBC1: distance to Abp1 bait with BBC1 SH3; for Protein-protein interaction distance between Abp1 SH3-swapped baits, to BEM1-1: distance to Abp1 bait with BEM1-1 SH3; for Protein-protein interaction distance between Abp1 SH3-swapped baits, to BEM1-2: distance to Abp1 bait with BEM1-2 SH3; for Protein-protein interaction distance between Abp1 SH3-swapped baits, to BOI1: distance to Abp1 bait with BOI1 SH3; for Protein-protein interaction distance between Abp1 SH3-swapped baits, to BOI2: distance to Abp1 bait with BOI2 SH3; for Protein-protein interaction distance between Abp1 SH3-swapped baits, to BUD14: distance to Abp1 bait with BUD14 SH3; for Protein-protein interaction distance between Abp1 SH3-swapped baits, to BZZ1-1: distance to Abp1 bait with BZZ1-1 SH3; for Protein-protein interaction distance between Abp1 SH3-swapped baits, to BZZ1-2: distance to Abp1 bait with BZZ1-2 SH3; for Protein-protein interaction distance between Abp1 SH3-swapped baits, to CDC25: distance to Abp1 bait with CDC25 SH3; for Protein-protein interaction distance between Abp1 SH3-swapped baits, to CTTN: distance to Abp1 bait with CTTN SH3; for Protein-protein interaction distance between Abp1 SH3-swapped baits, to CYK3: distance to Abp1 bait with CYK3 SH3; for Protein-protein interaction distance between Abp1 SH3-swapped baits, to DBNL: distance to Abp1 bait with DBNL SH3; for Protein-protein interaction distance between Abp1 SH3-swapped baits, to FUS1: distance to Abp1 bait with FUS1 SH3; for Protein-protein interaction distance between Abp1 SH3-swapped baits, to HCLS1: distance to Abp1 bait with HCLS1 SH3; for Protein-protein interaction distance between Abp1 SH3-swapped baits, to HOF1: distance to Abp1 bait with HOF1 SH3; for Protein-protein interaction distance between Abp1 SH3-swapped baits, to HSE1: distance to Abp1 bait with HSE1 SH3; for Protein-protein interaction distance between Abp1 SH3-swapped baits, to LSB1: distance to Abp1 bait with LSB1 SH3; for Protein-protein interaction distance between Abp1 SH3-swapped baits, to LSB3: distance to Abp1 bait with LSB3 SH3; for Protein-protein interaction distance between Abp1 SH3-swapped baits, to MYO3: distance to Abp1 bait with MYO3 SH3; for Protein-protein interaction distance between Abp1 SH3-swapped baits, to MYO5: distance to Abp1 bait with MYO5 SH3; for Protein-protein interaction distance between Abp1 SH3-swapped baits, to NBP2: distance to Abp1 bait with NBP2 SH3; for Protein-protein interaction distance between Abp1 SH3-swapped baits, to PEX13: distance to Abp1 bait with PEX13 SH3; for Protein-protein interaction distance between Abp1 SH3-swapped baits, to PIN3: distance to Abp1 bait with PIN3 SH3; for Protein-protein interaction distance between Abp1 SH3-swapped baits, to RVS167: distance to Abp1 bait with RVS167 SH3; for Protein-protein interaction distance between Abp1 SH3-swapped baits, to SDC25: distance to Abp1 bait with SDC25 SH3; for Protein-protein interaction distance between Abp1 SH3-swapped baits, to SHO1: distance to Abp1 bait with SHO1 SH3; for Protein-protein interaction distance between Abp1 SH3-swapped baits, to SLA1-1: distance to Abp1 bait with SLA1-1 SH3; for Protein-protein interaction distance between Abp1 SH3-swapped baits, to SLA1-2: distance to Abp1 bait with SLA1-2 SH3; for Protein-protein interaction distance between Abp1 SH3-swapped baits, to SLA1-3: distance to Abp1 bait with SLA1-3 SH3; for Protein-protein interaction distance between Abp1 SH3-swapped baits, to YSC84: distance to Abp1 bait with YSC84 SH3; for PPIs gained by Abp1 - SH3-dependent PPIs gained by Abp1 / SH3-dependent PPIs - SH3-dependent PPIs gained by Abp1 / SH3-dependent PPIs gained by Abp1: number of PPIs, Abp1 SH3-swapped with the listed SH3, Fig2D,S2F; for PPIs gained by Abp1 - SH3-dependent PPIs gained by Abp1 / SH3-dependent PPIs - SH3-dependent PPIs gained by Abp1: difference; for SH3-dependent PPIs gained by Abp1: DHFR-PCA
In short: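 Yeast DHFR-PCA in which Abp1 baits, carrying their SH3 replaced by CRISPR–Cas9 with one of 27 yeast SH3s or human CTTN, HCLS1 or DBNL SH3s, were mated against 575 SH3-associated DHFR F[3] preys plus 40 negative controls. Four tests were run per PPI. Diploids were selected twice (48 h, 30 °C), then grown 4 days on PCA selection media.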

Molecule | Protein-protein interaction distance between Abp1 SH3-swapped baits, to ABP1 | Protein-protein interaction distance between Abp1 SH3-swapped baits, to BBC1 | Protein-protein interaction distance between Abp1 SH3-swapped baits, to BEM1-1 | Protein-protein interaction distance between Abp1 SH3-swapped baits, to BEM1-2 | Protein-protein interaction distance between Abp1 SH3-swapped baits, to BOI1 | Protein-protein interaction distance between Abp1 SH3-swapped baits, to BOI2 | Protein-protein interaction distance between Abp1 SH3-swapped baits, to BUD14 | Protein-protein interaction distance between Abp1 SH3-swapped baits, to BZZ1-1 | Protein-protein interaction distance between Abp1 SH3-swapped baits, to BZZ1-2 | Protein-protein interaction distance between Abp1 SH3-swapped baits, to CDC25 | Protein-protein interaction distance between Abp1 SH3-swapped baits, to CTTN | Protein-protein interaction distance between Abp1 SH3-swapped baits, to CYK3 | Protein-protein interaction distance between Abp1 SH3-swapped baits, to DBNL | Protein-protein interaction distance between Abp1 SH3-swapped baits, to FUS1 | Protein-protein interaction distance between Abp1 SH3-swapped baits, to HCLS1 | Protein-protein interaction distance between Abp1 SH3-swapped baits, to HOF1 | Protein-protein interaction distance between Abp1 SH3-swapped baits, to HSE1 | Protein-protein interaction distance between Abp1 SH3-swapped baits, to LSB1 | Protein-protein interaction distance between Abp1 SH3-swapped baits, to LSB3 | Protein-protein interaction distance between Abp1 SH3-swapped baits, to MYO3 | also measured
HSE1 (protein, UniProt P38753 2-452, looked up) Class E vacuolar …: SSSAIKIRNALLKATDPKLRSDNWQYILDVCDLVKEDPEDNGQEVMSLIEKRLEQQDANVILRTLSLTVSLAENCGSRLRQEISSKNFTSLLYALIESHSVHITLKKAVTDVVKQLSDSFKDDPSLRAMGDLYDKIKRKAPYLVQPNVPEKHNMSTQADNSDDEELQKALKMSLFEYEKQKKLQEQEKESAEVLPQQQQQHQQQNQAPAHKIPAQTVVRRVRALYDLTTNEPDELSFRKGDVITVLEQVYRDWWKGALRGNMGIFPLNYVTPIVEPSKEEIEKEKNKEAIVFSQKTTIDQLHNSLNAASKTGNSNEVLQDPHIGDMYGSVTPLRPQVTRMLGKYAKEKEDMLSLRQVLANAERSYNQLMDRAANAHISPPVPGPALYAGMTHANNTPVMPPQRQSYQSNEYSPYPSNLPIQHPTNSANNTPQYGYDLGYSVVSQPPPGYEQ | 9.43 | 7.295 | 11.1 | 30.97 | 7.847 | 11.78 | 14.54 | 5.175 | 7.81 | 24.19 | 9.154 | 25.16 | 5.82 | 16.23 | 9.236 | 29.42 | 0.00 | 12.02 | 12.29 | 11.17 | Protein-protein interaction distance between Abp1 SH3-swapped baits, to MYO5: 10.84; Protein-protein interaction distance between Abp1 SH3-swapped baits, to NBP2: 13.88; Protein-protein interaction distance between Abp1 SH3-swapped baits, to PEX13: 8.715; Protein-protein interaction distance between Abp1 SH3-swapped baits, to PIN3: 9.808; Protein-protein interaction distance between Abp1 SH3-swapped baits, to RVS167: 7.315; Protein-protein interaction distance between Abp1 SH3-swapped baits, to SDC25: 31.59; Protein-protein interaction distance between Abp1 SH3-swapped baits, to SHO1: 5.64; Protein-protein interaction distance between Abp1 SH3-swapped baits, to SLA1-1: 27.26; Protein-protein interaction distance between Abp1 SH3-swapped baits, to SLA1-2: 16.63; Protein-protein interaction distance between Abp1 SH3-swapped baits, to SLA1-3: 11.86; Protein-protein interaction distance between Abp1 SH3-swapped baits, to YSC84: 12.83; PPIs gained by Abp1 - SH3-dependent PPIs gained by Abp1: 4; SH3-dependent PPIs - SH3-dependent PPIs gained by Abp1: 1; SH3-dependent PPIs gained by Abp1: 0
HOF1 (protein, UniProt Q05080 1-669, looked up) Cytokinesis protein 2: MSYSYEACFWDPNDNGVNILLGHISQGIRSCDSMILFFKQRSELEKDYARRLGAITGKLDKDIGTNMDYGKLNETFNVVLSVEKARAQSHSKQSEILFRQIYTDTKAFAANLQARYTTLSGKIERLRMDKFNKKKGCEVLQKKLQDAQIRFRDLQLNENNMIGAKRVEHNKRELLKWESNSQEYKVQLDVLKQEYKASQKFWIHEWAQLSCELQEMENARISFLQSKLQQFATSSMETYILEQTKMDMLTNHLNSFTAADEISTFSKENGTGRLKHKTSKGDMNSSANWAQMSSISTTSKKTESYMDNIRKLSSQLKETENKRKLASIDKYEKPLPSPEVTMATQFRNSTPVIRNETKVVANPTLSLRSSPVQLQSNVDDSVLRQKPDKPRPIVGEEQLKPDEDSKNPDEKGLMVHKRNQSLSSPSESSSSNPTDFSHIKKRQSMESMTTSVSSMANSIDDSQRFAKSWNSSNRKRKSMSHLQVPSSASSRSDDGGRTPNSAHNLNEDDYNTRRDTSTSTILFKPPVAVRGTSRGHTHRQSMIMQDSSNPIEDALYEMERIQSSSKPGTKTGNIMDERGVVRDRGITVTLPIVTSEGFPVIEYAKAMYPLIGNEAPGLANFHKGDYLLITEIVNKDWYKGEVYDNDRIDRNHRIGLIPYNFIQLLHQGL | 30.98 | 29.63 | 23.16 | 6.415 | 26.74 | 25.74 | 21.88 | 30.35 | 27.6 | 10.42 | 25.67 | 10.8 | 29.45 | 21.29 | 32.71 | 0.00 | 29.42 | 35.15 | 34.67 | 33.94 | Protein-protein interaction distance between Abp1 SH3-swapped baits, to MYO5: 33.29; Protein-protein interaction distance between Abp1 SH3-swapped baits, to NBP2: 21.63; Protein-protein interaction distance between Abp1 SH3-swapped baits, to PEX13: 33.79; Protein-protein interaction distance between Abp1 SH3-swapped baits, to PIN3: 32.38; Protein-protein interaction distance between Abp1 SH3-swapped baits, to RVS167: 32.19; Protein-protein interaction distance between Abp1 SH3-swapped baits, to SDC25: 7.905; Protein-protein interaction distance between Abp1 SH3-swapped baits, to SHO1: 29.05; Protein-protein interaction distance between Abp1 SH3-swapped baits, to SLA1-1: 9.015; Protein-protein interaction distance between Abp1 SH3-swapped baits, to SLA1-2: 20.72; Protein-protein interaction distance between Abp1 SH3-swapped baits, to SLA1-3: 35.48; Protein-protein interaction distance between Abp1 SH3-swapped baits, to YSC84: 34.92; PPIs gained by Abp1 - SH3-dependent PPIs gained by Abp1: 1; SH3-dependent PPIs - SH3-dependent PPIs gained by Abp1: 4; SH3-dependent PPIs gained by Abp1: 0
